# Assay results taken from patent US10670612B2, “Immunoassay standards and measurement of clinical biomarkers using intra-assay calibration standards” (Saladax Biomedical, Inc., priority 2010, dated 2020).
# Ends that are not written are not given here.
# Assay: Dynamic light scattering
# Format: physicochemical
# Conditions: phosphate buffer pH 7.4, 25° C.
# Procedure: One set was prepared at 1.0 mg/ml, the second set was prepared at 0.10 mg/ml, and stored at room temperature. Peptides were dissolved by vortexing for 1 min, and centrifuged in a microcentrifuge for 5 min at 14,000 rpm, at room temperature. For Aβ42 samples (MSD), vials containing 0.1 mg peptide were suspended in 1.0 ml buffer, and treated as above. A volume (200 μl) of each centrifuged 1.0 mg/ml stock was transferred to a 0.5 ml polypropylene tube, and provided for NMR analysis.
# The absorbance spectra of all samples were recorded (220-750 nm) using a NANODROP® ND-1000 instrument, and blanked against the buffer. Dynamic light scattering analysis was conducted on the peptides in a 384 well polystyrene plate (CORNING®, type 3540) with a Wyatt DLS DynaPro plate reader. Data collection and analysis was completed using software from the manufacturer (DYNAMICS, versions 7.0.0.94 and 7.0.1.12). Each peptide was evaluated in triplicate with 30 μl loaded per well, and overlaid with 5 μl mineral oil, to minimize evaporation. Buffer blanks were also included in the analysis for comparison. After loading the plate, a transparent adhesive sealing tape cover was applied to the plate and the plate was centrifuged for 2 min at 1000 rpm. Each sample on the plate was read 30 times, 5 sec per acquisition, maintaining a temperature of 25° C. Data sets were collected on both the 1.0 mg/ml and 0.10 mg/ml samples over the course of 27 days. The adhesive cover was removed to read the samples in the plate reader, and used to cover the plate between readings over the 27 day time course.
# FIGS. 7A through 7F show dynamic light scattering data. In FIGS. 7A-F, the full length Aβ42 peptide was subjected to DLS analysis and compared to four representative modified peptides. […] FIG. 7a represents the raw data accumulated for all five peptides. Shown is the intensity autocorrelation versus time. […] FIGS. 7b-7f depict the percent mass versus the radius of the peptides. Monomeric peptides would be represented by a larger percent mass at the smaller radius size.
sequence,measurement,setting,value
"DAEFRHDSGYEVHHQKEERPIGLMVGGVVIA (not fully specified) [GS#4, native Aβ42 amino acids (1-16)-EERP-native Aβ42 amino acids (32-42)]",% Intensity,DLS Peak 1,3.8%
same,% Mass,DLS Peak 1,97.7%
same,% Pd,DLS Peak 1,3.2%
same,Mw-R,DLS Peak 1,6.0 kDa
same,Radius,DLS Peak 1,1.3 nm
same,% Intensity,DLS Peak 2,0.6%
same,% Mass,DLS Peak 2,0.2%
same,% Pd,DLS Peak 2,0.0%
same,Mw-R,DLS Peak 2,225.0 kDa
same,Radius,DLS Peak 2,6.0 nm
same,% Intensity,DLS Peak 3,5.2%
same,% Mass,DLS Peak 3,0.0%
same,% Pd,DLS Peak 3,4.5%
same,Mw-R,DLS Peak 3,7527.0 kDa
same,Radius,DLS Peak 3,27.0 nm
same,% Intensity,DLS Peak 4,25.1%
same,% Mass,DLS Peak 4,0.2%
same,% Pd,DLS Peak 4,4.3%
same,Mw-R,DLS Peak 4,283287.0 kDa
same,Radius,DLS Peak 4,127.0 nm
